From patent US20170327598A1, “SINGLE DOMAIN ANTIBODIES DIRECTED AGAINST INTRACELLULAR ANTIGENS” (SINGH MOLECULAR MEDICINE, LLC, priority 2014, published 2017)
Where “and” joins values, the source holds several entries; their conditions need not be identical. Identical values can stand only once.

Key:
endogenous STAT3 = biological target: T1, endogenous STAT3 (Homo sapiens, UniProt P40763); experiment: Immunoprecipitation of endogenous STAT3 from MDA-MB-231 lysate, Western blot; type: binding; conditions: FIG. 3
T1 construct: endogenous STAT3 immunoprecipitated with all sdAbs tested at varying amounts; endogenous in cells
T1 sequence (P40763 whole entry): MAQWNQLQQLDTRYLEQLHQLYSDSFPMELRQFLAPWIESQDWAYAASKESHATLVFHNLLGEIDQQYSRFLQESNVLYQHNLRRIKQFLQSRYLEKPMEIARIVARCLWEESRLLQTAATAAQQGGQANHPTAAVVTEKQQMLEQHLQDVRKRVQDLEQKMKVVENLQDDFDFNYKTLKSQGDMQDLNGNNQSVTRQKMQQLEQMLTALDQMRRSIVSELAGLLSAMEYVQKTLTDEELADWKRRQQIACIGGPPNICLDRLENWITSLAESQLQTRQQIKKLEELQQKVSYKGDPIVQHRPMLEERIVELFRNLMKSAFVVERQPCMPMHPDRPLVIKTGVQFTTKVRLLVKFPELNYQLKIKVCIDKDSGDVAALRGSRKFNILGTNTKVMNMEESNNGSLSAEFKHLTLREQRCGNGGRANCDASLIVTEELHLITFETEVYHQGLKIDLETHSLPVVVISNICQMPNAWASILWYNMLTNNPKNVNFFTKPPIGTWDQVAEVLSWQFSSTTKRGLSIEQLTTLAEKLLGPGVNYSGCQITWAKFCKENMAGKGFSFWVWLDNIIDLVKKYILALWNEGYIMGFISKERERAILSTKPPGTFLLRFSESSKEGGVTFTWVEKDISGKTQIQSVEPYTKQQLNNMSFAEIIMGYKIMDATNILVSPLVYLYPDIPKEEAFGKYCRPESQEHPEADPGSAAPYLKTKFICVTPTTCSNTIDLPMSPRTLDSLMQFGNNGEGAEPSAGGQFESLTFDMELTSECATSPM
Experimental: The specificity of STAT3 sdAbs was assayed in human breast cancer cells. […] The cells were then disrupted in freshly prepared ice-cold lysis buffer (20 mM HEPES, pH 7.9, 400 mM NaCl, 0.1% NP-40, 10% glycerol, 1 mM sodium vanadate, 1 mM sodium fluoride, 1 mM dithiothreitol, 1 mM phenylmethylsulfonyl fluoride, 10 μg/mL aprotinin, 10 μg/mL leupeptin) for 45 minutes on ice. Lysates were then centrifuged, the supernatant collected, and protein concentration was determined using a modified Lowry method (Bio Rad, Hercules, Calif.). Total protein (1 mg) was incubated with 1.5 mg of Dynabeads (Invitrogen) with sdAbs against STAT3, a positive control (STAT3, cat#SC-482, Santa Cruz Biotechnology, Dallas, Tex.), or negative control (STAT-1, cat#9172, Cell Signaling, Danvers, Mass.) for 1 hour at 4° C. Beads were then washed. Following the final wash, 60 μl of lysis buffer was added, and the resulting supernatant was subject to Western blot analysis. Briefly, samples were separated on 10% polyacrylamide gels and transferred to a nitrocellulose membrane. The membranes were blocked, then incubated with appropriate primary and secondary antibodies. Anti-STAT3 antibody, used as a positive control, was from Cell Signaling (Cat#4904, Danvers, Mass.). The chemiluminescence reaction was performed using the ECL system from Santa Cruz Biotechnology (Dallas, Tex.).

MDA-MB-231 cells = experiment: MTT proliferation assay, MDA-MB-231; type: cell-based, human
PANC-1 cells = experiment: MTT proliferation assay, PANC-1; type: cell-based, human; conditions: for Mean Absorbance (570 nM) ± S.E.: single experiments 1-3
[1] = test system: rabbit anti-llama biotinylated antibody or his-probe (H-3) biotin labeled antibody; experiment: ELISA with sdAbs coated, binding of secondary antibodies (Experiments 2 and 3)
Experimental: Two assays (Experiment 2 and 3) were performed to assess the binding of the secondary antibody to the sdAbs. A similar ELISA method was utilized except the sdAbs were directly coated onto the assay plate at a concentration of 1 μg/mL. Plates were incubated overnight at 2-8° C. After the incubation, plates were washed (3×) and blocked (3% BSA in PBS) for at least one hour at room temperature.
After removal of the blocking buffer and washing (3×), the secondary antibodies, either rabbit anti-llama biotinylated antibody or his-probe (H-3) biotin labeled antibody at was then added at a 1:5,000 dilution to each well and incubated with shaking for at least one hour at room temperature. Only the rabbit anti-llama biotinylated antibody was used in Experiment 2. Both antibodies were run in parallel in Experiment 3.
After the incubation with secondary antibody, the plates were again washed (3×) and HRP at a 1:50,000 dilution was added to each well. Plates were incubated with shaking for at least one hour at room temperature. One last wash (3×) was performed followed by the addition of TMB substrate and plates were incubated at room temperature. For the anti-llama biotinylated antibody stop solution was added to halt the colorimetric reaction at 10 minutes. The his-probe (H-3) biotin labeled antibody was allowed to incubate for 20 minutes prior to stopping. The absorbance at 450 nm was measured as before.

[2] = test system: STAT3 reporter, induction by interleukin-6; experiment: STAT3 reporter GloResponse SIE-luc2P/HEK293 cell assay, IL-6 induction; type: cell-based;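 also: IL-6 added at 40 ng/mL (EC80) for roughly one day after pretreatment, luciferase luminescence read with Bio-Glo reagent, untreated +IL6 wells serve as control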
[3] = test system: GloResponse SIE-luc2P/HEK 293 cells; experiment: BCA protein concentration of reporter cells run in parallel; type: cell-based
[4] = MDA-MB-231, 5 days of treatment, 0.5 μg/ml
[5] = MDA-MB-231, 5 days of treatment, 1.0 μg/ml
[6] = MDA-MB-231, 5 days of treatment, 10.0 μg/ml
[7] = MDA-MB-231, 5 days of treatment, 100.0 μg/ml
[8] = 24 Hour Treatment Prior to IL6 Induction, high conc.: VHH13 55.8 μg/mL, VHH14 84.3 μg/mL, BB1608 4.16 μM, VHH69 50.5 μg/mL
[9] = 24 Hour Treatment Prior to IL6 Induction, low conc.: VHH13, VHH14, VHH69 10 μg/mL, BB1608 2 μM
[10] = 48 Hour Treatment Prior to IL6 Induction, high conc.: VHH13 55.8 μg/mL, VHH14 84.3 μg/mL, BB1608 4.16 μM, VHH69 50.5 μg/mL
[11] = 48 Hour Treatment Prior to IL6 Induction, low conc.: VHH13, VHH14, VHH69 10 μg/mL, BB1608 2 μM

B1: H.VHH14: anti-STAT3 sdAb VHH14 (SEQ ID NO:4), presumably the form produced in mammalian cells (protein)
VHH: QVQLVESGGGSVQAGGSLRLSCVASTYTGCMGWFRQAPGKEREGVAALSSRGFAGHYTDSVKGRFSISRDYVKNAVYLQMNTVKPEDAAMYYCAAREGWECGETWLDRTAGGHTYWGQGTLVTVSS
modifications: Camelid
- immunoprecipitation of endogenous STAT3 (endogenous STAT3): immunoprecipitated
- % Inhibition (MDA-MB-231 cells; MDA-MB-231, 3 days of treatment, 1.0 μg/ml): 0.5%
- % Inhibition (MDA-MB-231 cells; [4]): 9.5%
- % Inhibition (MDA-MB-231 cells; [5]): 4.9%
- % Inhibition (MDA-MB-231 cells; [6]): 18.2%
- % Inhibition (MDA-MB-231 cells; [7]): 18.9%
- Mean Absorbance (570 nM) ± S.E. (MDA-MB-231 cells; MDA-MB-231, Day 3, 0.5 μg/ml): 0.485 ± 0.040
- Mean Absorbance (570 nM) ± S.E. (MDA-MB-231 cells; MDA-MB-231, Day 3, 1.0 μg/ml): 0.402 ± 0.017
- Mean Absorbance (570 nM) ± S.E. (MDA-MB-231 cells; MDA-MB-231, Day 3, 10.0 μg/ml): 0.588 ± 0.020
- Mean Absorbance (570 nM) ± S.E. (MDA-MB-231 cells; MDA-MB-231, Day 3, 100 μg/ml): 0.416 ± 0.030
- Mean Absorbance (570 nM) ± S.E. (MDA-MB-231 cells; MDA-MB-231, Day 5, 0.5 μg/ml): 0.890 ± 0.021
- Mean Absorbance (570 nM) ± S.E. (MDA-MB-231 cells; MDA-MB-231, Day 5, 1.0 μg/ml): 0.935 ± 0.037
- Mean Absorbance (570 nM) ± S.E. (MDA-MB-231 cells; MDA-MB-231, Day 5, 10.0 μg/ml): 0.804 ± 0.015
- Mean Absorbance (570 nM) ± S.E. (MDA-MB-231 cells; MDA-MB-231, Day 5, 100 μg/ml): 0.797 ± 0.010
- Mean Absorbance (570 nM) ± S.E., Overall Mean (PANC-1 cells; PANC-1, Day 3, 10.0 μg/ml): 1.089 ± 0.085
- Mean Absorbance (570 nM) ± S.E. (PANC-1 cells; PANC-1, Day 3, 10.0 μg/ml): 0.920 ± 0.133 and 1.183 ± 0.114 and 1.163 ± 0.044
- Mean Absorbance (570 nM) ± S.E., Overall Mean (PANC-1 cells; PANC-1, Day 3, 100 μg/ml): 0.906 ± 0.054
- Mean Absorbance (570 nM) ± S.E. (PANC-1 cells; PANC-1, Day 3, 100 μg/ml): 0.808 ± 0.239 and 0.993 ± 0.088 and 0.916 ± 0.088
- Mean Absorbance (570 nM) ± S.E., Overall Mean (PANC-1 cells; PANC-1, Day 5, 10.0 μg/ml): 1.368 ± 0.247
- Mean Absorbance (570 nM) ± S.E. (PANC-1 cells; PANC-1, Day 5, 10.0 μg/ml): 1.859 ± 0.033 and 1.165 ± 0.015 and 1.081 ± 0.103
- Mean Absorbance (570 nM) ± S.E., Overall Mean (PANC-1 cells; PANC-1, Day 5, 100 μg/ml): 0.754 ± 0.333

B2: Anti-STAT3 VHH14: second anti-STAT3 single domain antibody, SEQ ID NO:4 (protein)
VHH: QVQLVESGGGSVQAGGSLRLSCVASTYTGCMGWFRQAPGKEREGVAALSSRGFAGHYTDSVKGRFSISRDYVKNAVYLQMNTVKPEDAAMYYCAAREGWECGETWLDRTAGGHTYWGQGTLVTVSS
modifications: Camelid
- immunoprecipitation of endogenous STAT3 (endogenous STAT3): immunoprecipitated
- % Inhibition (MDA-MB-231 cells; MDA-MB-231, 3 days of treatment, 10.0 μg/ml): 23.1%
- % Inhibition (MDA-MB-231 cells; MDA-MB-231, 3 days of treatment, 100.0 μg/ml): 57.0%
- Overall Average % Inhibition (MDA-MB-231 cells; MDA-MB-231, 3 days, 10.0 μg/ml): 26.2%
- Mean Growth Inhibition (MDA-MB-231 cells; MDA-MB-231, 3 days, 10.0 μg/ml, single experiments 1-4, listed as B.VHH14): 23.1% and 20.0% and 38.5% and 23.3%
- Overall Average % Inhibition (MDA-MB-231 cells; MDA-MB-231, 3 days, 100 μg/ml): 55.7%
- Mean Growth Inhibition (MDA-MB-231 cells; MDA-MB-231, 3 days, 100 μg/ml, single experiments 1-4, listed as B.VHH14): 57.0% and 42.8% and 62.3% and 60.6%
- % Inhibition (MDA-MB-231 cells; [4]): 0%
- % Inhibition (MDA-MB-231 cells; [5]): 0%
- % Inhibition (MDA-MB-231 cells; [6]): 5.5%
- % Inhibition (MDA-MB-231 cells; [7]): 18.9%
- Overall Average % Inhibition (MDA-MB-231 cells; MDA-MB-231, 5 days, 10.0 μg/ml): 14.9%
- Overall Average % Inhibition (MDA-MB-231 cells; MDA-MB-231, 5 days, 100 μg/ml): 38.6%
- Mean Absorbance (570 nM) ± S.E. (MDA-MB-231 cells; MDA-MB-231, Day 3, 0.5 μg/ml): 0.666 ± 0.022
- Mean Absorbance (570 nM) ± S.E. (MDA-MB-231 cells; MDA-MB-231, Day 3, 1.0 μg/ml): 0.644 ± 0.045
- Mean Absorbance (570 nM) ± S.E. (MDA-MB-231 cells; MDA-MB-231, Day 3, 10.0 μg/ml): 0.456 ± 0.048
- Mean Absorbance (570 nM) ± S.E. (MDA-MB-231 cells; MDA-MB-231, Day 3, 100 μg/ml): 0.255 ± 0.005
- Mean Absorbance (570 nM) ± S.E. (MDA-MB-231 cells; MDA-MB-231, Day 5, 0.5 μg/ml): 0.733 ± 0.038
- Mean Absorbance (570 nM) ± S.E. (MDA-MB-231 cells; MDA-MB-231, Day 5, 1.0 μg/ml): 0.794 ± 0.023
- Mean Absorbance (570 nM) ± S.E. (MDA-MB-231 cells; MDA-MB-231, Day 5, 10.0 μg/ml): 0.640 ± 0.011
- Mean Absorbance (570 nM) ± S.E. (MDA-MB-231 cells; MDA-MB-231, Day 5, 100 μg/ml): 0.549 ± 0.023
- Mean Absorbance (570 nM) ± S.E., Overall Mean (MDA-MB-231 cells; Table 6, MDA-MB-231, Day 3, 10.0 μg/ml): 0.504 ± 0.021
- Mean Absorbance (570 nM) ± S.E. (MDA-MB-231 cells; Table 6, MDA-MB-231, Day 3, 10.0 μg/ml, single experiments 1-4, listed as B.VHH14): 0.456 ± 0.048 and 0.499 ± 0.018 and 0.502 ± 0.048 and 0.559 ± 0.041
- Mean Absorbance (570 nM) ± S.E., Overall Mean (MDA-MB-231 cells; Table 6, MDA-MB-231, Day 3, 100 μg/ml): 0.302 ± 0.043
- Mean Absorbance (570 nM) ± S.E. (MDA-MB-231 cells; Table 6, MDA-MB-231, Day 3, 100 μg/ml, single experiments 1-4, listed as B.VHH14): 0.255 ± 0.005 and 0.357 ± 0.019 and 0.308 ± 0.021 and 0.287 ± 0.021
- Mean Absorbance (570 nM) ± S.E., Overall Mean (MDA-MB-231 cells; Table 7, MDA-MB-231, Day 5, 10.0 μg/ml): 0.688 ± 0.131
- Mean Absorbance (570 nM) ± S.E., Overall Mean (MDA-MB-231 cells; Table 7, MDA-MB-231, Day 5, 100 μg/ml): 0.475 ± 0.0690
- OD450 Values ([1]; His-probe (H-3), Experiment 3, stored 1:100 dilution of sdAb): 3.416
- OD450 Values ([1]; Rabbit anti-Llama Secondary Antibody, Experiment 2, sdAb coated at 1 μg/mL): 2.813
- OD450 Values ([1]; Rabbit anti-Llama Secondary Antibody, Experiment 3, stored 1:100 dilution of sdAb): 2.439
- Average RLU [2, 8]: 496624 RLU
- Average RLU with Media Blank [2, 8]: 496598 RLU
- Luminescence (RLU), single wells [2, 8]: 465649 RLU and 520343 RLU and 503880 RLU
- Average RLU [2, 9]: 214828 RLU
- Average RLU with Media Blank [2, 9]: 214803 RLU
- Luminescence (RLU), single wells [2, 9]: 218125 RLU and 203210 RLU and 223150 RLU
- Average RLU [2, 10]: 480595 RLU
- Average RLU with Media Blank [2, 10]: 480562 RLU
- Luminescence (RLU), single wells [2, 10]: 494706 RLU and 488307 RLU and 458771 RLU
- Average RLU [2, 11]: 232537 RLU
- Average RLU with Media Blank [2, 11]: 232504 RLU
- Luminescence (RLU), single wells [2, 11]: 241785 RLU and 236843 RLU and 218982 RLU
- effect on IL-6 induction of STAT3 reporter ([2]; 24 hours and 48 hours treatment prior to IL-6): enhancement of the IL-6 induction
- Protein concentration [3, 8]: 270
- Protein concentration [3, 9]: 189
- Protein concentration [3, 10]: 229
- Protein concentration [3, 11]: 216
